This passage reports screen value results from publication PMC12102759 (2025).

B1: AXIN1 peptide 237-252 (Axin-1), 16-mer library wild type / PP2A B56 (PPP2R5A B56 domain, residues 1-486) (parent complex)
chain 1: YLPTLNEDEEWKADQD
chain 2: not shown

The variants in this test derive from B1. Put plainly: proteomic peptide phage display deep mutational scan (ProP-PD DMS): M13 P8 16-mer library selected against immobilised GST-tagged bait for four days (rounds), NGS of the eluted pools per day and pseudo-replica; bait immobilised on MaxiSorp plates (10 µg), library pre-cleared on GST, 2 h binding at 4 °C, five washes; one round per day, days 1-4; value from days 2 and 3.
Turning to chain 1 P3S, the screen value is 0.00024 average fractional NGS count over selection days 2 and 3 (reads of this peptide / all reads for the bait, averaged over ….
The result for chain 1 P3H reads 0.00026 average fractional NGS count over selection days 2 and 3 (reads of this peptide / all reads for the bait, averaged over …; that for chain 1 P3E, 0.000951 average fractional NGS count over selection days 2 and 3 (reads of this peptide / all reads for the bait, averaged over ….
Take chain 1 P3Y: the screen value was 0.000178 average fractional NGS count over selection days 2 and 3 (reads of this peptide / all reads for the bait, averaged over ….
The result for chain 1 E9N reads 0.000581 average fractional NGS count over selection days 2 and 3 (reads of this peptide / all reads for the bait, averaged over ….
Take chain 1 E9D: the screen value was 0.000572 average fractional NGS count over selection days 2 and 3 (reads of this peptide / all reads for the bait, averaged over ….
Consider chain 1 E9M, for which the screen value is 0.00292 average fractional NGS count over selection days 2 and 3 (reads of this peptide / all reads for the bait, averaged over ….
To chain 1 E9H belongs 0.000956 average fractional NGS count over selection days 2 and 3 (reads of this peptide / all reads for the bait, averaged over …; to chain 1 E9W, 0.00436 average fractional NGS count over selection days 2 and 3 (reads of this peptide / all reads for the bait, averaged over ….
On to chain 1 E9G, for which the screen value is 0.000581 average fractional NGS count over selection days 2 and 3 (reads of this peptide / all reads for the bait, averaged over ….
As for chain 1 A13Y, the screen value was 0.00559 average fractional NGS count over selection days 2 and 3 (reads of this peptide / all reads for the bait, averaged over ….
Turning to chain 1 A13G, the screen value is 0.000231 average fractional NGS count over selection days 2 and 3 (reads of this peptide / all reads for the bait, averaged over ….
For chain 1 A13W, the screen value is 0.00128 average fractional NGS count over selection days 2 and 3 (reads of this peptide / all reads for the bait, averaged over ….
To chain 1 A13F belongs 0.000843 average fractional NGS count over selection days 2 and 3 (reads of this peptide / all reads for the bait, averaged over …; to chain 1 A13T, 0.000184 average fractional NGS count over selection days 2 and 3 (reads of this peptide / all reads for the bait, averaged over …; to chain 1 A13M, 0.000333 average fractional NGS count over selection days 2 and 3 (reads of this peptide / all reads for the bait, averaged over ….
The result for chain 1 A13I reads 0.00149 average fractional NGS count over selection days 2 and 3 (reads of this peptide / all reads for the bait, averaged over …; that for chain 1 A13S, 0.0021 average fractional NGS count over selection days 2 and 3 (reads of this peptide / all reads for the bait, averaged over ….
The result for chain 1 A13Q reads 0.000245 average fractional NGS count over selection days 2 and 3 (reads of this peptide / all reads for the bait, averaged over ….
As for chain 1 L2M, the screen value is 0.000692 average fractional NGS count over selection days 2 and 3 (reads of this peptide / all reads for the bait, averaged over ….
The result for chain 1 W11Q reads 0.000237 average fractional NGS count over selection days 2 and 3 (reads of this peptide / all reads for the bait, averaged over …; that for chain 1 W11I, 0.000232 average fractional NGS count over selection days 2 and 3 (reads of this peptide / all reads for the bait, averaged over …; that for chain 1 W11Y, 0.000932 average fractional NGS count over selection days 2 and 3 (reads of this peptide / all reads for the bait, averaged over ….
As for chain 1 W11V, the screen value is 0.000957 average fractional NGS count over selection days 2 and 3 (reads of this peptide / all reads for the bait, averaged over ….
The result for chain 1 D8L reads 0.00362 average fractional NGS count over selection days 2 and 3 (reads of this peptide / all reads for the bait, averaged over …; that for chain 1 D8T, 0.000632 average fractional NGS count over selection days 2 and 3 (reads of this peptide / all reads for the bait, averaged over ….
The result for chain 1 D8N reads 0.000367 average fractional NGS count over selection days 2 and 3 (reads of this peptide / all reads for the bait, averaged over …; that for chain 1 D8W, 0.000322 average fractional NGS count over selection days 2 and 3 (reads of this peptide / all reads for the bait, averaged over ….
The result for chain 1 D8I reads 0.000369 average fractional NGS count over selection days 2 and 3 (reads of this peptide / all reads for the bait, averaged over …; that for chain 1 D8Q, 0.00238 average fractional NGS count over selection days 2 and 3 (reads of this peptide / all reads for the bait, averaged over …; that for chain 1 D8K, 0.00103 average fractional NGS count over selection days 2 and 3 (reads of this peptide / all reads for the bait, averaged over ….
For chain 1 D8V, the screen value was 0.000175 average fractional NGS count over selection days 2 and 3 (reads of this peptide / all reads for the bait, averaged over ….
To chain 1 Y1V belongs 0.000255 average fractional NGS count over selection days 2 and 3 (reads of this peptide / all reads for the bait, averaged over ….
To chain 1 Y1K belongs 0.000785 average fractional NGS count over selection days 2 and 3 (reads of this peptide / all reads for the bait, averaged over ….
The result for chain 1 Y1I reads 0.00029 average fractional NGS count over selection days 2 and 3 (reads of this peptide / all reads for the bait, averaged over …; that for chain 1 Y1H, 0.000114 average fractional NGS count over selection days 2 and 3 (reads of this peptide / all reads for the bait, averaged over ….
As for chain 1 Y1M, the screen value is 0.000646 average fractional NGS count over selection days 2 and 3 (reads of this peptide / all reads for the bait, averaged over ….
To chain 1 Y1T belongs 0.00199 average fractional NGS count over selection days 2 and 3 (reads of this peptide / all reads for the bait, averaged over …; to chain 1 Y1N, 0.000299 average fractional NGS count over selection days 2 and 3 (reads of this peptide / all reads for the bait, averaged over ….
The result for chain 1 Y1P reads 0.000164 average fractional NGS count over selection days 2 and 3 (reads of this peptide / all reads for the bait, averaged over …; that for chain 1 Y1R, 0.000195 average fractional NGS count over selection days 2 and 3 (reads of this peptide / all reads for the bait, averaged over …; that for chain 1 Q15K, 0.000314 average fractional NGS count over selection days 2 and 3 (reads of this peptide / all reads for the bait, averaged over ….
The result for chain 1 Q15F reads 0.00274 average fractional NGS count over selection days 2 and 3 (reads of this peptide / all reads for the bait, averaged over ….
chain 1 Q15E: the screen value is 0.00341 average fractional NGS count over selection days 2 and 3 (reads of this peptide / all reads for the bait, averaged over ….
Regarding chain 1 Q15L, the screen value is 0.00865 average fractional NGS count over selection days 2 and 3 (reads of this peptide / all reads for the bait, averaged over ….
To chain 1 Q15W belongs 0.00273 average fractional NGS count over selection days 2 and 3 (reads of this peptide / all reads for the bait, averaged over ….
To chain 1 Q15M belongs 0.00211 average fractional NGS count over selection days 2 and 3 (reads of this peptide / all reads for the bait, averaged over ….
To chain 1 Q15H belongs 0.0369 average fractional NGS count over selection days 2 and 3 (reads of this peptide / all reads for the bait, averaged over …; to chain 1 Q15I, 0.00307 average fractional NGS count over selection days 2 and 3 (reads of this peptide / all reads for the bait, averaged over ….
With chain 1 Q15D, the screen value is 0.000993 average fractional NGS count over selection days 2 and 3 (reads of this peptide / all reads for the bait, averaged over ….
To chain 1 T4M belongs 0.000565 average fractional NGS count over selection days 2 and 3 (reads of this peptide / all reads for the bait, averaged over …; to chain 1 T4Y, 0.00014 average fractional NGS count over selection days 2 and 3 (reads of this peptide / all reads for the bait, averaged over …; to chain 1 T4V, 0.000271 average fractional NGS count over selection days 2 and 3 (reads of this peptide / all reads for the bait, averaged over ….
With chain 1 N6R, the screen value is 0.000965 average fractional NGS count over selection days 2 and 3 (reads of this peptide / all reads for the bait, averaged over ….
Take chain 1 N6D: the screen value was 0.00102 average fractional NGS count over selection days 2 and 3 (reads of this peptide / all reads for the bait, averaged over ….
To chain 1 N6V belongs 0.00339 average fractional NGS count over selection days 2 and 3 (reads of this peptide / all reads for the bait, averaged over …; to chain 1 N6H, 0.0272 average fractional NGS count over selection days 2 and 3 (reads of this peptide / all reads for the bait, averaged over ….
The result for chain 1 N6K reads 0.0012 average fractional NGS count over selection days 2 and 3 (reads of this peptide / all reads for the bait, averaged over ….
The result for chain 1 K12W reads 0.0129 average fractional NGS count over selection days 2 and 3 (reads of this peptide / all reads for the bait, averaged over ….
In the case of chain 1 K12F, the screen value was 0.00191 average fractional NGS count over selection days 2 and 3 (reads of this peptide / all reads for the bait, averaged over ….
The result for chain 1 K12G reads 0.00482 average fractional NGS count over selection days 2 and 3 (reads of this peptide / all reads for the bait, averaged over …; that for chain 1 K12M, 0.000504 average fractional NGS count over selection days 2 and 3 (reads of this peptide / all reads for the bait, averaged over ….
To chain 1 K12D belongs 0.000722 average fractional NGS count over selection days 2 and 3 (reads of this peptide / all reads for the bait, averaged over ….
The result for chain 1 K12I reads 0.00212 average fractional NGS count over selection days 2 and 3 (reads of this peptide / all reads for the bait, averaged over …; that for chain 1 K12E, 0.000936 average fractional NGS count over selection days 2 and 3 (reads of this peptide / all reads for the bait, averaged over ….
Consider chain 1 D14L, for which the screen value is 0.00106 average fractional NGS count over selection days 2 and 3 (reads of this peptide / all reads for the bait, averaged over ….
The result for chain 1 D14F reads 0.0121 average fractional NGS count over selection days 2 and 3 (reads of this peptide / all reads for the bait, averaged over …; that for chain 1 D14K, 0.000793 average fractional NGS count over selection days 2 and 3 (reads of this peptide / all reads for the bait, averaged over …; that for chain 1 D14W, 0.0112 average fractional NGS count over selection days 2 and 3 (reads of this peptide / all reads for the bait, averaged over ….
The result for chain 1 D14P reads 0.00181 average fractional NGS count over selection days 2 and 3 (reads of this peptide / all reads for the bait, averaged over …; that for chain 1 D14H, 0.038 average fractional NGS count over selection days 2 and 3 (reads of this peptide / all reads for the bait, averaged over ….
To chain 1 E10F belongs 0.000572 average fractional NGS count over selection days 2 and 3 (reads of this peptide / all reads for the bait, averaged over …; to chain 1 E10S, 0.000255 average fractional NGS count over selection days 2 and 3 (reads of this peptide / all reads for the bait, averaged over ….
For chain 1 E10L, the screen value is 0.00181 average fractional NGS count over selection days 2 and 3 (reads of this peptide / all reads for the bait, averaged over ….
To chain 1 E10I belongs 0.0037 average fractional NGS count over selection days 2 and 3 (reads of this peptide / all reads for the bait, averaged over ….
